Measurements reported in patent publication US20250207166.

How the values were obtained:
[1] = biological target: T1, chalcone synthase-like D (ChSD)
T1 chain: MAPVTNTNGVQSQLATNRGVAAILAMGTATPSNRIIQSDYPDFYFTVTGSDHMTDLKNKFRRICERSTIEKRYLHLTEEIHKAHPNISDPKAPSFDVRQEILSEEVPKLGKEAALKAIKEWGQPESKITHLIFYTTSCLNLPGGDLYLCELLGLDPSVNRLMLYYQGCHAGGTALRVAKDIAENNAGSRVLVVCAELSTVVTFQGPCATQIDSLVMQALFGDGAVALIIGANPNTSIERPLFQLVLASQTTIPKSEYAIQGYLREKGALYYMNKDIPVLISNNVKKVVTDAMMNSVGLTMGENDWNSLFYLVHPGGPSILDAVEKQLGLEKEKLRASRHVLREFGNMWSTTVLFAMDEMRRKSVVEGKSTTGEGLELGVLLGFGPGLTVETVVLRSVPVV

[2] = biological target: T2, chalcone synthase-like A (ChSA)
T2 chain: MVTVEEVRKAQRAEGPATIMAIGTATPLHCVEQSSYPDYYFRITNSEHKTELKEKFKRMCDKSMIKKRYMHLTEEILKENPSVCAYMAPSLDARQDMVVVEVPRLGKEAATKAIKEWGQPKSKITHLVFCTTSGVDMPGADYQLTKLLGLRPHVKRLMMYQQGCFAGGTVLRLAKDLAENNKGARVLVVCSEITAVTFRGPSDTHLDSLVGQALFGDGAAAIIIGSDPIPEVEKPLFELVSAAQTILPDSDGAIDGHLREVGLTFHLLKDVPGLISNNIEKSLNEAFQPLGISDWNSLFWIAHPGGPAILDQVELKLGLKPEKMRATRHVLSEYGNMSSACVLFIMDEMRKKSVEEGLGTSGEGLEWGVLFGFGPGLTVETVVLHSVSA

[3] = biological target: T3, chalcone synthase-like B (ChSB)
T3 chain: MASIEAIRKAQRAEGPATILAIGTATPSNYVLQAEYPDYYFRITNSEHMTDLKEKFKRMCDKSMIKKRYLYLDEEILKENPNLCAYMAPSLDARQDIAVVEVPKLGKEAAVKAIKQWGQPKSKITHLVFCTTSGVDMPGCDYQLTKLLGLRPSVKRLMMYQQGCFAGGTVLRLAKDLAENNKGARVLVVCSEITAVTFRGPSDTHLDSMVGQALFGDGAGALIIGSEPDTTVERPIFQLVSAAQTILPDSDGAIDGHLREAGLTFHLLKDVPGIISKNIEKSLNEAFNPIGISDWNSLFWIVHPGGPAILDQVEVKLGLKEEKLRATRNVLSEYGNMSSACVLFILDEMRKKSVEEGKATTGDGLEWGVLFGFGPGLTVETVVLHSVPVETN

[4] = biological target: other ChS candidates
[5] = biological target: T4, chalcone synthase-like F (ChSF)
T4 chain: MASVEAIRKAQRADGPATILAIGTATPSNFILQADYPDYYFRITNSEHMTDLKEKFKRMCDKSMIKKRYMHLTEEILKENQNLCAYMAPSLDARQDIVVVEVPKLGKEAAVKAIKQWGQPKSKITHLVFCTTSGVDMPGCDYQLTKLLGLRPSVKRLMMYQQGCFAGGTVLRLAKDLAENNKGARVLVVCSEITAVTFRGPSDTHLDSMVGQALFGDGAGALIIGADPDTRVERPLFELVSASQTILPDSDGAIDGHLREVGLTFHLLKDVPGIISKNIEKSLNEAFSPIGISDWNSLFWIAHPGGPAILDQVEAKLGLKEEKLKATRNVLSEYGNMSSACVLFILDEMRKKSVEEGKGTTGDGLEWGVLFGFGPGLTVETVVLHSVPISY

[6] = biological target: T5, chalcone synthase-like C (ChSC)
T5 chain: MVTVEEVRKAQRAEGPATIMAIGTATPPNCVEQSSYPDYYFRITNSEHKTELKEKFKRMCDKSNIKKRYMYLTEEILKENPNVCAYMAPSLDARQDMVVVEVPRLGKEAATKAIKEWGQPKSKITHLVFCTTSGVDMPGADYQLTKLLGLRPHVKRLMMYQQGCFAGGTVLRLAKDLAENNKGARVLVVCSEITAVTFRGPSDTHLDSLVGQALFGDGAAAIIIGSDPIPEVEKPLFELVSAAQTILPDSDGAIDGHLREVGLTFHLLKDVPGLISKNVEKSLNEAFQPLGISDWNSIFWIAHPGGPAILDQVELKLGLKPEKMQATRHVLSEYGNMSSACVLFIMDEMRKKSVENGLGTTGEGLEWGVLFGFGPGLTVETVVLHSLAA

B1: chalcone synthase-like E (ChSE) (protein)
chain: MGSLDQDFQPNQVPTIRADAATVLAIGTANPPNCIPQAEFADFYFRVTNSNHMTDLKKKFKRICEKSSIKKRYVHLTEKILNENPNICTFKEPSLTARQNIATEEIPKLGKEAALKAIEEWGRPKSEITHLVFCTIGGAEMPSADYQLVHLLGLNPSVKRFMLYYQGCFAGGSVLRLAKDLAENNVGARVLVVCAEVSIPYFHGPSEAHFDSNLIWQMLCGDGAGAAIVGSNPRKLIERPLFQLVSASQTIVPNSEGAIKGTLSEMGIIFNLVDKVPVLIGNNIENCLEEAFGSLGISNWNSLFWVAHPGGPAILNQIEEKLKLKEEKLKASRHVLSEYGNMSSACVFFILDEMRRRSKEEGKITTGDGLEWGVLFGFGPGLTVETIVLRSISTNEAH
- QA-TriR-FRX-C9 amounts in N. benthamiana leaves, triads of ChSs co-infiltrated [1]: the triads containing ChSD consistently had higher QA-TriR-FRX-C9 amounts than those without
- levels of product (QA-TriR-FRX-C9) in N. benthamiana leaves, ChS pairs co-infiltrated [1]: Pairing ChSE with ChSA, ChSC, CHSD or CHSF increased the levels of product made compared to either ChSE by itself or to the combination of all ChSs but ChSE
- levels of product (QA-TriR-FRX-C9) in N. benthamiana leaves, ChS pairs co-infiltrated [2]: Pairing ChSE with ChSA, ChSC, CHSD or CHSF increased the levels of product made compared to either ChSE by itself or to the combination of all ChSs but ChSE
- levels of product (QA-TriR-FRX-C9) in N. benthamiana leaves, ChS pairs co-infiltrated (repeat experiment) [3]: In a repeat experiment, ChSB paired with ChSE also led to a noticeable increase of product
- levels of QA-TriR-FRX-C9 in N. benthamiana leaves (drop-out of one of six co-infiltrated ChS candidates) [4]: The levels of QA-TriR-FRX-C9 were not affected except when ChSE was absent
- levels of product (QA-TriR-FRX-C9) in N. benthamiana leaves, ChS pairs co-infiltrated [5]: Pairing ChSE with ChSA, ChSC, CHSD or CHSF increased the levels of product made compared to either ChSE by itself or to the combination of all ChSs but ChSE
- levels of product (QA-TriR-FRX-C9) in N. benthamiana leaves, ChS pairs co-infiltrated [6]: Pairing ChSE with ChSA, ChSC, CHSD or CHSF increased the levels of product made compared to either ChSE by itself or to the combination of all ChSs but ChSE
